From the nanobody polyreactivity screen of Harvey et al. (2022)

Experiment: yeast display, Sf9 membrane polyspecificity reagent, FACS + sequencing; frameworks hold sequencing errors
Procedure, shortened: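 A nanobody's polyreactivity label depends on the gate it was sorted from. Yeast display cells were stained with 10% biotinylated, detergent-solubilized Sf9 membrane reagent for 1 hour at 4 °C, enriched on streptavidin microbeads and sorted by FACS. The low and high (top ~1%) gates were set on anti-HA fluorescence for expression and streptavidin fluorescence for reagent binding.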

## QVQHVESGGGLVQAGGSLRLSCAASGRTFAQYTMGWYRQAPGKERELVAGIDWSGGNTYYADSVKGRFTISRDNAKNTVYLQMNSLKPVDTAVYYCAAVPAFYNAWGEDYEYWGQGTQVTVSS
  polyreactivity (PSR sort gate): low polyreactivity

## QVQHVESGGGLVQAGGSLRLSCAASGRTFGSNAMGWYRQAPGKERELVAAISLRGGRTYYADSVKGRFTISRDNAKNTVYLLMNSLKPEDTAVYYCNAVHYLYGARSRLTYDYWGQGTQVTVSS
  polyreactivity (PSR sort gate): high polyreactivity

## QVQHVESGGGLVQAGGSLRLSCAASGRTFPPYDMGWYRQAPGKERELVAAITSDGSTSYADSVKGRFTISRDNAKNTVYLQMNSLKPEDTAVYYCAAYRWYSAARMGYWGQGTQVTVSS
  polyreactivity (PSR sort gate): high polyreactivity

## QVQHVESGGGLVQAGGSLRLSCAASGRTFRLYAMGRYRMAPGKERELVAAITRGGRTNYADSVKGRFTISRDNAKNTVYLQMNSLKPEDTAVYYCAVAGFDRGQYVRYYYWGQGTQVTVSS
  polyreactivity (PSR sort gate): low polyreactivity

## QVQHVESGGGLVQAGGSLRLSCAASGRTIIKYAMGWYRQAPGKERELVAAISRSAGSTYYADSVKGRFTISRDNAKNTVYLQMNSLKPEDTAVYYCNAVTSSYLRFDYWGQGTQVTVSS
  polyreactivity (PSR sort gate): high polyreactivity

## QVQHVESGGGLVQAGGSLRLSCAASGRTITNYVMGWYRQSPGKEREFVATITARGGSTNYADSVKGRFTISRDNAKNTVYLQMNSLKPEDTAVYYCAAGRRFTVAYGYFYWGQGTQVTVSS
  polyreactivity (PSR sort gate): high polyreactivity

## QVQHVESGGGLVQAGGSLRLSCAASGRTTYTNARGWYRQAPGKERELVASISWRGGSSYYADSVKGRFTISRDNAKNTVYLQMNSLIPEDTAVYYCAASWPRWWRFGYWGQGTQVTVSS
  polyreactivity (PSR sort gate): low polyreactivity

## QVQHVESGGGLVQAGGSLRLSCAASGRTYGYYAMGWYRQAPGKERELVAAITRTGGSTHYADSVKGRFTISRDNAKNTVYLQMNSLKPEDTAVYYFARTSRHVRYDYWGEGTQVTVSS
  polyreactivity (PSR sort gate): low polyreactivity

## QVQHVESGGGLVQAGGSLRLSCAASGSIFLVYAMGWYRLAPGKERELVAAISNSGSTNYADSVKGRFTISRDNAKNTVYLQMNSLKPEDTAVYYCAKDSLVDHVGGYDYWGHGTQVTVSS
  polyreactivity (PSR sort gate): low polyreactivity

## QVQHVESGGGLVQAGGSLRLSCAASGSIFQKNAMGWYRKAPGKERELVAVITRGGTSTYYADSVKGRFTISRDNAKNTVYLQMNSLKPEDTAVYYCAAKADKRLDYWGQGTQVTVSS
  polyreactivity (PSR sort gate): low polyreactivity

## QVQHVESGGGLVQAGGSLRLSCAASGSIFSHYAMGWYRQEPGKERELVATITWRGGSNTNYADSVKGRFTISRDNAKNTVYLQMNSLKPEDTAVYYCNAAFPYHYRFDYWGQGTQVTVSS
  polyreactivity (PSR sort gate): low polyreactivity

## QVQHVESGGGLVQAGGSLRLSCAASGSIFTVNAMGWYRQAPGKERELVAAIDGSSGSTNYADSVKGRFTISRDNAKNTVYLQMNSLKPEDTAVYYCAADWSYEYGYWGQGTQVTVSS
  polyreactivity (PSR sort gate): low polyreactivity

## QVQHVESGGGLVQAGGSLRLSCAASGSIFVPYALGWSRQAPGKEREFVAVISLRGSRTYYADSVKGRFTISRDNAKNTVYLQMNSLKPEDTAVYYCATTGYRLRQATRYDYRGQGTQVTVSS
  polyreactivity (PSR sort gate): high polyreactivity

## QVQHVESGGGLVQAGGSLRLSCAASGSIFWYYAKGWYRQAPGKERELVATITSGGSTSYADSVKGRFTISRDNAKNPVYLQMNSLKPEDTAVYYCAAARLFTTYDWGQGTQVTVSS
  polyreactivity (PSR sort gate): low polyreactivity

## QVQHVESGGGLVQAGGSLRLSCAASGSIFYDYAMGWYRQAPGKERELVAAISKSDGSTYYADSVKGRFTISRDNAKNTVYLQMNSLKPEDTAVYYCNADLIYSYPPEYDYWGQGTQVTVSS
  polyreactivity (PSR sort gate): high polyreactivity

## QVQHVESGGGLVQAGGSLRLSCAASGSISPQNVMGWYRQAPGKERELVAAITGGGYTNYADSVKGRFTISRDNANNTVYLQMNSLKPEDTAVYYCNADYFQDRLDYWGQGTQVTVSS
  polyreactivity (PSR sort gate): low polyreactivity

## QVQHVESGGGLVQAGGSLRLSCAASGSNSAYAMGWYRQAPGKERELVAAINSGGSTTYADSVKGRFTISRDNAKNTVYLQMNSLKPEDTAVYSCAARAPSFRYGTSNYPAYRLDYWGQGTQVTVSS
  polyreactivity (PSR sort gate): high polyreactivity

## QVQHVESGGGLVQAGGSLRLSCAASGSTFDGYAMGWYRQAPGKERELVAAISRSGGRTYYADSVKGRFTISRDNAKNTVYLQMTSLKPEDTAVYYCAALYPYKREDYWGQGTQVTVSS
  polyreactivity (PSR sort gate): high polyreactivity

## QVQHVESGGGLVQAGGSLRLSCAASGSTFDRYAMGWNRQAPGKERELVAAISGGGGSTYYADSVKGRFTISRDNAKNTVYLQMNSLKPEDTAVYYCAKLLARGNRYDSWGQGTQLTVSS
  polyreactivity (PSR sort gate): high polyreactivity

## QVQHVESGGGLVQAGGSLRLSCAASGSTFDYYAMGWYRQAPGKERELVAAISDSARSTFYADSVKGRFTISRDNAKNTVYLQMNSLKPEDTAVYYCAAYFWSYWRSEGYSWGQGTKVTVSS
  polyreactivity (PSR sort gate): high polyreactivity

## QVQHVESGGGLVQAGGSLRLSCAASGSTFGYNDMGRYRQAPGKERELVAAIDTGVSTNYADSVKGRFTISRDNAKNTVYLQMNSLKPEDTAVYYCAKSGSAYWHSGWSVGFDYWGQGTQVTVSS
  polyreactivity (PSR sort gate): low polyreactivity

## QVQHVESGGGLVQAGGSLRLSCAASGSTFPTYAMGWYRQAPGKERELVADITWSGGSTYYADSVKGRFTISRDNAKNTVYLQMNSLKPEDTAVYYCNAAHRKGMYYWGQGTQVTVSS
  polyreactivity (PSR sort gate): high polyreactivity

## QVQHVESGGGLVQAGGSLRLSCAASGSTFSYYAMGWSRQAPGKERELVAAISGSGASTYYADSVKGRFTISRDNAKNTVYLQMNSLKPEDTAVYYCAKYYVREHYDYWGQGTQVTVSS
  polyreactivity (PSR sort gate): low polyreactivity

## QVQHVESGGGLVQAGGSLRLSCAASGSTFTGYTMGWYRQAPGKERELVASIRTYYADSVKGRFTISRDNAKNTVYLQMNSLKPEDTAVYYCAADFPSATGGYDYWGQGTQVTVSS
  polyreactivity (PSR sort gate): low polyreactivity

## QVQHVESGGGLVQAGGSLRLSCAASGSTFTSYALGWYRQAPGKERELVAAISKSGGSTYYADSVKGRFTISRDNAKNTVYLQMNSLKPEDTSVYYCAASYNVRSYSTSRFDYWGQGTQVTVSS
  polyreactivity (PSR sort gate): low polyreactivity

## QVQHVESGGGLVQAGGSLRLSCAASGSTFTWYTMGWYRQAPGKERELVATIRKRGGSTYYADSVKGRFTISRDNAKNTVYLQMNSLKPEDTAVYYCAAVYKVHSGLYEYWGQGTQVTVSS
  polyreactivity (PSR sort gate): high polyreactivity

## QVQHVESGGGLVQAGGSLRLSCAASGSTFVQNAMGWYRQAPGKERELVAAISRSGGRTYYAYSVKGRFTISRDNAKNTVYLQMNSLKPEDTAVYYCAARYPVRPDDGYWGKGTQVTVSS
  polyreactivity (PSR sort gate): high polyreactivity

## QVQHVESGGGLVQAGGSLRLSCAASGSTFWFNAMGWYRQATGKVRELVAAITSGSTYYADSVKGRFTISRDNAKNTVYLPMNSLQPEYTAVYYCASTEFTFYYSYDYWAQGTQVTVSS
  polyreactivity (PSR sort gate): low polyreactivity

## QVQHVESGGGLVQAGGSLRLSCAASGSTFWGYAMGWYRQAPGKERELVAAINWIGGSDTFYADSVKGRFTISRDNAKNTVYLQMNSLKPEDTAVYYCAATYYNLPYSWGYDSWGQGSQVTVSS
  polyreactivity (PSR sort gate): low polyreactivity

## QVQHVESGGGLVQAGGSLRLSCAASGSTFYGYAMGWYRQAPGKERELVARISSSSGRTYYADSVKGRFTISRDNAKNTVYLQMNSLKPEDTAVFYCAARFLWSVFGRKGGYWGQGTQVTVSS
  polyreactivity (PSR sort gate): low polyreactivity

## QVQHVESGGGLVQAGGSLRLSCAASGSTLGGYVMGWYRQAPGKERELVASITYSGGSTRYADSVKGRFTISRDNAKNTVYLQMNSLKPEDTAVYYCAAGAQRTYYTYSFRRVGYDYDYWGQGTQVTVSS
  polyreactivity (PSR sort gate): low polyreactivity

## QVQHVESGGGLVQAGGSLRLSCAASGSTSGKYAMGWYRQAPGKERELVAGITKGGGGTYYADSVKGRFTISRDNAKNTVYLQLNSLKPEVTAVYYCAKYYGSGYYIYDYWGQGTQVTVSS
  polyreactivity (PSR sort gate): low polyreactivity

## QVQHVESGGGLVQAGGSLRLSCAASGTTFYSYAMGWYRQAPGKERELVAAISWRTSSTYYADSVKGRFTISRDNAKNTVYLQMNSLKPEDTAVYYCAAETWLGSWRQVGMDYWGQGTQVTVSS
  polyreactivity (PSR sort gate): high polyreactivity

## QVQHVESGGGLVQAGGSLRLSCAASGYTFGGNAMGWYRQAPGKERELVAAISSGGSTNYADSVKGRFTISRDNAKNTVYLQMNSLKPEDTAVYYCNKRGYYYWSGQDVASYDYWGQGTQLTVSS
  polyreactivity (PSR sort gate): low polyreactivity

## QVQHVESGGGLVQAGGSLRLSCAASGYTFRYYAMGWYRQAPGKERELVARINRSGGSTYYADSVKGRFTISRDYAKYTVYLQMNSLKPEDTAVYYCNRDYGWHYSYDYWGQGTQVTVSS
  polyreactivity (PSR sort gate): high polyreactivity

## QVQHVESGGGLVQAGGSLRLSCAASVLIFYIYAMGWYRQAPGKERELVAAITTGGRTNYADSVKGRFTISRDNAKNTVYLQMKSLKPEDTEVYYCAKDFPIWISHGPDTDNDYGGQGTQVTVSS
  polyreactivity (PSR sort gate): low polyreactivity

## QVQHVESGGGLVQAGGSLRLSCADSGSTLRGNAMGWYRQAPGKEREMVAAISIGSRTNYADSVKGRFTISRDNAKNTDYLQMNSLKPEDTAVYYCAKDISLRVRGPYYFGFDYWGQGTQVTVSS
  polyreactivity (PSR sort gate): low polyreactivity

## QVQHVESGGGLVQAGGSLRLSCAPSGSIFRPYAMGWSRQAPGKEMELVAAISFSGAGTYYADSVKGRFTISRDNAKNTVYLQMNSLTPEDTAVYYCNARRYTTYWLLYEYDYWGQGTQVTVSS
  polyreactivity (PSR sort gate): low polyreactivity

## QVQHVESGGGLVQAGGSLRLSCAPSGSTFYNNAMGWYRQAPGKERELVAAITRSGGSTYYADSVKGRFTISRDNAKNTVYLQMNSLKPEDTEVYYCNKYGYKGGVGYDYWGQGTQVTVSS
  polyreactivity (PSR sort gate): high polyreactivity

## QVQHVESGGGLVQAGGSLRLSCGASGRIFRRYAMGWYSLAAVKEREFVAAISYGGGSTYYADSVKGRFTISRDNAKNTVYLQMNSLKPEDSAVYYCNADVPKSLLLYYPWGYGYWGQGTQVTVSS
  polyreactivity (PSR sort gate): low polyreactivity

## QVQHVESGGGLVQAGGSLRLSCSASGSTFGLYAMGWSRQAPGKETELVAVISWRGGSTYYADSVKGRFTISRDNAKNTVYLQMNSLKPEDTAVYYCAAYSRYPYVRYDYWGQGTQVTVSS
  polyreactivity (PSR sort gate): low polyreactivity

## QVQHVESGGGLVQAGGSLRLSSAASGFIFILYAMGWYTQAPGKERELVAAISSCGTRTYYADSVKGRFTISRDNAKNTVYLQMISLKPEDTGVYYCNTAWRDYVARLGGVGYDYWGQGTQVTVSS
  polyreactivity (PSR sort gate): high polyreactivity

## QVQHVESGGGLVQAGGSLRLSSAASGFTFNRYAMGWNSQAPGKESELVATITSGGNTYYADSVKGRFTLSRDNAKNTVYLEMNTLKPEDTAVYYCNNRGWYSVYRRDYWGQGTQVTVSS
  polyreactivity (PSR sort gate): high polyreactivity
